Results reported in the Immune Epitope Database (IEDB).
Blank lines part the entries; values can stand above or below the sequence they belong to.

Experiments:
[1] = target: HLA-B*40:02; test: IEDB peptide-MHC binding, purified MHC/competitive/radioactivity; filed as Kd, often an IC50 or EC50 that approximates it; ≥ and ≤ were set here for values at or beyond the usual limits of such assays
[2] = target: HLA-B*45:01; test: as above
[3] = target: HLA-B*44:03; test: as above
[4] = target: HLA-B*18:01; test: as above
[5] = target: HLA-B*44:02; test: as above
[6] = target: HLA-B*40:01; test: as above
[7] = target: HLA-B*35:01; test: as above; settings: source organism: Dengue virus 3 Sri Lanka/1266/2000
[8] = target: HLA-B*53:01; test: as above; settings: source organism: Dengue virus 3 Sri Lanka/1266/2000
[9] = target: HLA-A*24:02; test: as above
[10] = target: HLA-A*23:01; test: as above
[11] = target: HLA-B*15:01; test: as above
[12] = target: HLA-B*08:01; test: as above; settings: source organism: Vaccinia virus WR
[13] = target: HLA-A*02:01; test: as above
[14] = target: HLA-A*68:02; test: as above; settings: source organism: Homo sapiens
[15] = target: HLA-A*02:06; test: as above
[16] = target: HLA-A*02:02; test: as above
[17] = target: HLA-A*02:03; test: as above
[18] = target: HLA-A*01:01; test: as above; settings: source organism: Dengue virus 2 Jamaica/1409/1983
[19] = target: HLA-B*15:01; test: IEDB peptide-MHC binding, purified MHC/competitive/fluorescence; filed as Kd, often an IC50 or EC50 that approximates it; ≥ and ≤ were set here for values at or beyond the usual limits of such assays
[20] = target: HLA-A*02:01; test: as above
[21] = source organism: SARS coronavirus Tor2
[22] = source organism: Dengue virus 3 Sri Lanka/1266/2000
[23] = source organism: Vaccinia virus WR
[24] = source organism: Mammarenavirus machupoense
[25] = source organism: Lymphocytic choriomeningitis virus (strain Armstrong)
[26] = source organism: Mammarenavirus juninense
[27] = source organism: Dengue virus 1 Brazil/97-11/1997

Sequence: MELPTGVHA
- Kd [1, 21]: 2740 nM
- Kd [2, 21]: 78.9 nM
- Kd [3, 21]: 13800 nM
- Kd [4, 21]: 18000 nM
- Kd [5, 21]: 7800 nM
- Kd [6, 21]: ≥ 24900 nM

Sequence: MEVQSLAMST
- Kd [1, 21]: ≥ 20100 nM
- Kd [2, 21]: 259 nM
- Kd [3, 21]: 951 nM
- Kd [4, 21]: 969 nM
- Kd [5, 21]: 7210 nM
- Kd [6, 21]: 2060 nM

Sequence: MMILPAALAF
- Kd [7]: 1490 nM
- Kd [8]: 6480 nM
- Kd [9, 22]: 916 nM
- Kd [10, 22]: 119 nM
- Kd [11, 22]: 2.41 nM

Sequence: MMKTYIEFV
- Kd [11, 23]: 170 nM

Sequence: MSIDHCSSF
- Kd [11, 23]: 0.952 nM

Sequence: MVHIYFVSL
- Kd [12]: 1.35 nM
- Kd [11, 23]: 5460 nM

Sequence: NAHKLILSG
- Kd [11, 23]: 18100 nM

Sequence: NDFVSDADST
- Kd [1, 21]: ≥ 70800 nM
- Kd [2, 21]: 2600 nM
- Kd [3, 21]: ≥ 70100 nM
- Kd [4, 21]: ≥ 70500 nM
- Kd [5, 21]: ≥ 32700 nM
- Kd [6, 21]: ≥ 69600 nM

Sequence: NEKVAGFAKF
- Kd [1, 21]: ≥ 70800 nM
- Kd [2, 21]: 18800 nM
- Kd [3, 21]: 527 nM
- Kd [4, 21]: 1560 nM
- Kd [5, 21]: 37.9 nM
- Kd [6, 21]: ≥ 53700 nM

Sequence: NSKNTSMSF
- Kd ([11]; source organism: Dengue virus 3 Martinique/1243/1999): 526 nM

Sequence: PENQEDPLVL
- Kd [1, 24]: ≥ 70800 nM
- Kd [2, 24]: ≥ 70000 nM
- Kd [3, 24]: ≥ 70100 nM
- Kd [4, 24]: ≥ 70400 nM
- Kd [5, 24]: ≥ 70200 nM
- Kd [6, 24]: ≥ 39500 nM

- Kd ([13]; source organism: Homo sapiens): ≥ 63100 nM
- Kd [14]: ≥ 65200 nM
- Kd ([15]; source organism: Homo sapiens): ≥ 68500 nM
- Kd ([16]; source organism: Homo sapiens): 4230 nM
- Kd ([17]; source organism: Homo sapiens): 11900 nM
Sequence: PLESDAVECL

Sequence: QALTDLGLI
- Kd ([13]; source organism: Lassa virus GA391): 3570 nM

Sequence: QEADNMITEM
- Kd [1, 25]: 124 nM
- Kd [2, 25]: 1190 nM
- Kd [3, 25]: 813 nM
- Kd [4, 25]: 1470 nM
- Kd [5, 25]: 224 nM
- Kd [6, 25]: 5360 nM

Sequence: QIHLAIMAVF
- Kd ([11]; source organism: Dengue virus 4 Philippines/H241/1956): 17 nM

Sequence: QMSSGNLLF
- Kd ([11]; source organism: Dengue virus 2 Jamaica/1409/1983): 6.83 nM
- Kd [18]: 4390 nM

Sequence: QNGALAINTF
- Kd ([19]; source organism: Human herpesvirus 4 type 2): ≥ 20000 nM

Sequence: RECYAQRFYL
- Kd [1, 24]: 5.55 nM
- Kd [2, 24]: 1440 nM
- Kd [3, 24]: 250 nM
- Kd [4, 24]: 137 nM
- Kd [5, 24]: 525 nM
- Kd [6, 24]: 9580 nM

Sequence: RIEDMFLTSV
- Kd [13, 23]: 48 nM
- Kd [15, 23]: 168 nM
- Kd [16, 23]: 548 nM
- Kd [17, 23]: 71 nM

Sequence: RIMAWTVVNSI
- Kd ([20]; source organism: Influenza A virus (A/chicken/California/1002a/00(H6N2))): ≤ 1 nM

Sequence: RSSMKLLSY
- Kd ([19]; source organism: Yersinia pestis Nepal516): 88.6 nM

Sequence: SDQKFVDVI
- Kd [1, 26]: 4430 nM
- Kd [2, 26]: 16700 nM
- Kd [3, 26]: ≥ 78100 nM
- Kd [4, 26]: ≥ 26300 nM
- Kd [5, 26]: ≥ 25400 nM
- Kd [6, 26]: ≥ 70700 nM

Sequence: SEAFLIGANY
- Kd [1, 21]: 348 nM
- Kd [2, 21]: 578 nM
- Kd [3, 21]: 3.75 nM
- Kd [4, 21]: 4.42 nM
- Kd [5, 21]: 8.47 nM
- Kd [6, 21]: ≥ 10000 nM

Sequence: SEFSSLPSYA
- Kd [1, 21]: 22.4 nM
- Kd [2, 21]: 25.3 nM
- Kd [3, 21]: 13.1 nM
- Kd [4, 21]: 1060 nM
- Kd [5, 21]: 343 nM
- Kd [6, 21]: 431 nM

Sequence: SELRPDTRY
- Kd [1, 21]: 3140 nM
- Kd [2, 21]: 1650 nM
- Kd [3, 21]: 714 nM
- Kd [4, 21]: 11200 nM
- Kd [5, 21]: 520 nM
- Kd [6, 21]: 11300 nM

Sequence: TVLEKNVTV
- Kd ([20]; source organism: Influenza A virus (A/Harbin/1/1988(H1N2))): 5.8 nM

Sequence: VMAFIAFLRF
- Kd [9, 27]: 901 nM
- Kd [10, 27]: 846 nM
- Kd [11, 27]: 62.3 nM
